Laboratory results reported in US20250276075A1, “METHODS OF TREATING AXL-EXPRESSING CANCERS WITH ANTI-AXL ANTIBODIES, ANTIBODY FRAGMENTS AND THEIR IMMUNOCONJUGATES” (BIOATLA, INC., priority 2020, published 2025).
Numbering of substitutions follows the chain as printed. Names may count otherwise.

T1: Axl (Homo sapiens, UniProt P30530)
T1 sequence (P30530 26-451 limits assumed): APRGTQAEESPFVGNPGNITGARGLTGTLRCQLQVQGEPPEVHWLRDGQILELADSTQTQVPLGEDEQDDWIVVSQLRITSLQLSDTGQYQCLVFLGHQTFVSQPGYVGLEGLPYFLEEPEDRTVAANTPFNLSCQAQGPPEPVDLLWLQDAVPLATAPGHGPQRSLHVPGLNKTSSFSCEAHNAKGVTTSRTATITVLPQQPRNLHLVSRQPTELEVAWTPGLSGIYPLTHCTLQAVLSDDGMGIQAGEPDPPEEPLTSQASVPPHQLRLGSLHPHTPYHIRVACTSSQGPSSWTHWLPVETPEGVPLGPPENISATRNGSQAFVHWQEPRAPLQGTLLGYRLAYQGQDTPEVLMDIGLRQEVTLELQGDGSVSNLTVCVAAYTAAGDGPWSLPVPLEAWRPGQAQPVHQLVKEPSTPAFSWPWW

B1: LC-P095E (antibody, V domains shown)
VH: EVQLVQSGAEVKKPGATVKISCKVSGYSFTGHTMNWIRQPPGKGLEWIGLIKPSNGGTSYNQKFKGRVTISADKSISTAYLQWSSLKASDTAMYYCAHGHYESYFAMDYWGQGTLVTVSS
VL: DIQMTQSPSSLSASVGDRVTITCKASQDVSSAVAWYQQKPGQAPRLLIYWASTRHTGVPSRFSGSGSGTEFTLTISSLQPDDFATYYCQEHFSTELTFGQGTKVEIK
B2: LC-P095K (antibody, V domains shown)
VH: B1 VH
VL: B1 VL with E95K
B3: HC-E102V (antibody, V domains shown)
VH: B1 VH with E102V
VL: B1 VL with E95P
B4: HC-H100R (antibody, V domains shown)
VH: B1 VH with H100R
VL: B1 VL with E95P
B5: LC-H091L (antibody, V domains shown)
VH: B1 VH
VL: B1 VL with H91L, E95P
B6: LC-H091Q (antibody, V domains shown)
VH: B1 VH
VL: B1 VL with H91Q, E95P
B7: LC-T097I (antibody, V domains shown)
VH: B1 VH
VL: B1 VL with E95P, T97I
B8: HC-S059I (antibody, V domains shown)
VH: B1 VH with S59I
VL: B1 VL with E95P
B9: LC-P095V (antibody, V domains shown)
VH: B1 VH
VL: B1 VL with E95V
B10: HC-S059T (antibody, V domains shown)
VH: B1 VH with S59T
VL: B1 VL with E95P
B11: LC-P095S (antibody, V domains shown)
VH: B1 VH
VL: B1 VL with E95S
B12: HC-S103D (antibody, V domains shown)
VH: B1 VH with S103D
VL: B1 VL with E95P
B13: LC-P095W (antibody, V domains shown)
VH: B1 VH
VL: B1 VL with E95W
B14: LC-P095T (antibody, V domains shown)
VH: B1 VH
VL: B1 VL with E95T
B15: LC-L096R (antibody, V domains shown)
VH: B1 VH
VL: B1 VL with E95P, L96R
B16: HC-E102L (antibody, V domains shown)
VH: B1 VH with E102L
VL: B1 VL with E95P
B17: LC-L096G (antibody, V domains shown)
VH: B1 VH
VL: B1 VL with E95P, L96G
B18: LC-P095H (antibody, V domains shown)
VH: B1 VH
VL: B1 VL with E95H
B19: LC-H091I (antibody, V domains shown)
VH: B1 VH
VL: B1 VL with H91I, E95P
B20: HC-E102Y (antibody, V domains shown)
VH: B1 VH with E102Y
VL: B1 VL with E95P
B21: HC-H100D (antibody, V domains shown)
VH: B1 VH with H100D
VL: B1 VL with E95P

The molecules below were run against Axl (UniProt P30530) (assay: ELISA, 1:3 dilution). Conditions: not given.

Molecule | Affinity ELISA CPE mutant ratio (1:3, pH 6.0/7.4)
B1 | 7.12
B2 | 3.84
B3 | 1.93
B4 | 1.88
B5 | 2.8
B6 | 1.77
B7 | 3.09
B8 | 30.5
B9 | 1.87
B10 | 1.02
B11 | 2.84
B12 | 4.24
B13 | 2.15
B14 | 2.5
B15 | 2.88
B16 | 3.27
B17 | 2.17
B18 | 2.5
B19 | 1.55
B20 | 2.61
B21 | 2.42

What follows are molecules tested against Axl (UniProt P30530) (assay: ELISA, 1:9 dilution). Conditions: not given.

Molecule | Affinity ELISA CPE mutant ratio (1:9, pH 6.0/7.4)
B1 | 7.51
B2 | 3.47
B3 | 2.51
B4 | 2.51
B5 | 2.08
B6 | 2.01
B7 | 4.05
B8 | 2.06
B9 | 2.13
B10 | 1.93
B11 | 3.51
B12 | 2.23
B13 | 2.26
B14 | 2.09
B15 | 2.18
B16 | 2.7
B17 | 2.44
B18 | 2.75
B19 | 2.15
B20 | 1.99
B21 | 3.09

What follows are molecules tested against T1, Axl (assay: Affinity ELISA of CPE mutant antibodies for binding to Axl at pH 6.0 over pH 7.4). Conditions: heavy chain variable region mutants; 1:3 dilution.
Description: The DNA encoding the wild-type antibody was evolved to generate a mutant antibody library using Comprehensive Positional Evolution (CPE), which each position in the template antibody is randomized one at a time. Each mutant antibody in the library has only one single point mutation. The mutant antibodies in the library were generated by simultaneously screening for selective binding affinity to Axl at pH 6.0 over pH 7.4 by ELISA. Two mutant antibody dilutions were used: 1:3 and 1:9 dilutions. The mutant antibodies that have at least 1.5 ratio of binding affinity at pH 6.0 to at pH 7.4 under either 1:3 or 1:9 dilution are selected as conditionally active antibodies, with the single point mutations indicated in each of the heavy chain and light chain variable region (Tables 1 and 2).
A wild-type antibody to Axl was selected as the template antibody (with a heavy chain variable region of 063-hum10F10-HC in FIG. 1A and a light chain variable region of […]). The DNA encoding the wild-type antibody was evolved to generate a mutant antibody library using Comprehensive Positional Evolution (CPE), a method by which each position in the template antibody is randomized one at a time. Each mutant antibody in the library has only one single point mutation. The mutant antibodies in the library were generated by simultaneously screening for selective binding affinity to Axl at pH 6.0 over pH 7.4 as determined by ELISA.
Simultaneously, the expression level of the mutant antibodies was also optimized for the purpose of higher fields in a manufacturing process. The screening was done in serum using a FLAG tag because there were human antibodies in the serum which might cause false positives for the screening. The screening buffer was a carbonate buffer (Krebs buffer with ringer-standard buffer but different from PBS). […] Some of the selected mutant antibodies (scFv) were represented in FIG. 2 with their higher activity at pH 6.0 than at pH 7.4, while their activity ratios between pH 6.0 to pH 7.4 were at least 11 fold (FIG. 3).

Molecule | Affinity ELISA CPE mutant ratio (1:3, pH 6.0/7.4)
B3 | 1.931
B4 | 1.877
B8 | 30.492
B10 | 1.021
B12 | 4.237
B16 | 3.266
B20 | 2.610
B21 | 2.416

Same assay, conditions: heavy chain variable region mutants; 1:9 dilution

Molecule | Affinity ELISA CPE mutant ratio (1:9, pH 6.0/7.4)
B3 | 2.507
B4 | 2.507
B8 | 2.055
B10 | 1.926
B12 | 2.230
B16 | 2.698
B20 | 1.990
B21 | 3.094

Same assay, conditions: light chain variable region mutants; 1:3 dilution

Molecule | Affinity ELISA CPE mutant ratio (1:3, pH 6.0/7.4)
B1 | 7.121
B2 | 3.840
B5 | 2.798
B6 | 1.770
B7 | 3.086
B9 | 1.871
B11 | 2.841
B13 | 2.148
B14 | 2.497
B15 | 2.876
B17 | 2.165
B18 | 2.504
B19 | 1.550

Same assay, conditions: light chain variable region mutants; 1:9 dilution

Molecule | Affinity ELISA CPE mutant ratio (1:9, pH 6.0/7.4)
B1 | 7.511
B2 | 3.468
B5 | 2.081
B6 | 2.010
B7 | 4.049
B9 | 2.132
B11 | 3.512
B13 | 2.263
B14 | 2.086
B15 | 2.176
B17 | 2.436
B18 | 2.754
B19 | 2.154
